{
  "source": "the DeepSol protein solubility set",
  "data": [
    {"assay": "soluble on expression in E. coli; label from the status in PepcDB or PDB records", "values": [
      {"sequence": "MGSDKIHHHHHHMALMTNKTRALLIGGHGKVALLATPMLIDASVQVTSMYRNPDHRSEIEALGATTLERDVTTLSVEDWADLLKDFDVVVWSAGNGGKNGADATYAIDRDAAIASIDGAASLGEKAPRYIMVSYIGSSTHTIDPSASFYPYAESKKAADEHLSSTNLDYLILAPAALTLDEVNGVEVIADTNEAAAGRTTSRVLVAEVITEFVVRDFPQTRVLPFVDGESPVSSIS", "soluble on expression in E. coli": "not soluble"},
      {"sequence": "MEKNKSSSPDFSVRDFFKRFPDDEACLEHIFNVRFGARHVCRACGVESTFHRMSDRRAFACAACGDHVYPTAGTIFQDTRTPLQVWFYAIYLFVTTRHGVSGKELQRQLGVTYKTAWRIGHKIREQMDKHDLKAMLQGHVEIDEAYIGGKRPGKRGRGAAGKTIVMGFKQRGGRLVTEIVPDVKLKTLRAETLKTVDAGATVSTDELYSYSLLKGEGYTHVAVKHGAKQWTIYDAETDTMHHTNHVESFWRHFKHSIRGTHVSISQRHMRKYLDEFTFRANHRGEVNLMFDRLVAAFLEHHHHHH", "soluble on expression in E. coli": "soluble"},
      {"sequence": "MTVVTTADTSQLYALAARHGLKLHGPLTVNELGLDYRIVIATVDDGRRWVLRIPRRAEVSAKVEPEARVLAMLKNRLPFAVPDWRVANAELVAYPMLEDSTAMVIQPGSSTPDWVVPQDSEVFAESFATALAALHAVPISAAVDAGMLIRTPTQARQKVADDVDRVRREFVVNDKRLHRWQRWLDDDSSWPDFSVVVHGDLYVGHVLIDNTERVSGMIDWSEARVDDPAIDMAAHLMVFGEEGLAKLLLTYEAAGGRVWPRLAHHIAERLAFGAVTYALFALDSGNEEYLAAAKAQLAAAE", "soluble on expression in E. coli": "not soluble"},
      {"sequence": "MSLKVHLNYETGPEHWADLQSRLAPGIRLSSGECRPANGFDILVSGEPTLEELEGNGRLRAVIVPWVGVPLATLDRMKEFPSIALHNLPYNIGPTAEMAVALLLAAAKRIVPYDQRLRRGYWSGEHTGVPGSVMLDGGLAVILGYGRIGRRVAAACRGLGMRIAGVRRNPGTSDEEYALADLSGLLPQAAALIVCLPHTHQTDRLIGSRELERLPSNAVLVNVARGGIVNEEALYRTLQARRIYAAGIDVWYRYPSATERKQGLPHPPSSFPFHTLDNVVMSPHRAGWSEEKEPARIAELANMLNAAARGEGHHHHHH", "soluble on expression in E. coli": "not soluble"},
      {"sequence": "MILTEVSQPTEGIKLATTNVQAFFKIDSLGNGTLYITDSAVIWISSAAGTKGFSVAYPAIVLHAISTDVSVFPSEHIFVMVDQRKSVRRRRRAPVLRTIQEDDEQRGLELAAAELEDEESDDDEEEPALEIRFVPDDKDSLSQIYHQIAVGQEENPEEDDPMYDDEEEEMEEEMGDDGQGQSGQWFTADNIDHMQMSEEGLANMQRIFGRGDQHQHHHNEDESME", "soluble on expression in E. coli": "not soluble"},
      {"sequence": "MGSDKIHHHHHHMMELINNRGMRDWMIFIKVAEVGNLSRAARELDISISAVSKSLSRLENSIEVTLLRRDSHHLELTGAGQTAYASMKRITSSFQSLLDELRNPDKIIRGSIKFSAPAIVCEFLANKWIWEFTASYPDTKIYLDSRERSDFFSKSLEFDELVFKSGIIESEDLVYRKISPLKLVLCASPKYIRKYGRISHPGDLENHIIVGLHNHGLSGPLTLFRQDESYTISGAVNVHLSSNNLLSVLNLVLEGKGINLMTPAWLATKYLKNNELEIILPEWRVPDLPIYLVWRHRQYYSPLFQRFLSFIEDKWNNRPQIDFLNDD", "soluble on expression in E. coli": "not soluble"},
      {"sequence": "MSLTPGRFLGWENADTASRTASDAIAVMDRRTWQALTTGHVELPCRRIHAGLWFRLLRTLLDELNTPLSACGTYAGYLRQVWQGCGHPLRAGQSLWRPYETLNPAIRLQMLEAAATAISLIEVRDISPPGEHAKLFWSELQTGFTSGLPAKPPKPEPVNHWQRAVQAISEAIIEARHDPETARSLFAMASYGRRDPASLEQLRATFAKEGIPPEFLSHYEADGPFACLRQNDGLSDKEGHHHHHH", "soluble on expression in E. coli": "not soluble"},
      {"sequence": "MNTLSSLLLALQQADSFFPGGAVAWSWGLETLVADGRLGAGERVTARRRQRAVRLDRSAAVRGFVEGQLRHRWHSFDRVFLLAAWNAADDVSALTNLDAQIEALTLAKELRQGSRRVGQALLGVHVALGTPGAAAYQQQVRAGNTPGHLPVLQGLLWNRLGMHREHCQLAAAHGLCTGLVSAAVRLGVMGHIDAQRVLTDIQPLITELLALEPPEPEDACGFTPMAEIAVMRHETQDLRLFANLEHHHHHH", "soluble on expression in E. coli": "soluble"},
      {"sequence": "MAHHHHHHMQDSVLLSEAFDASHRPWPNRPERKKGVSPSGRDFNMTLYRMKGCPYCERVEWLLRYHLVPFEIVEVGPLTTKGFPDQRFVQVPQIGLEAVADPNNPHAAEKSVAYVADSQHIIAAISAPLGFTKQLSDPRIMETRKWMMERFQAAGFLAINSTWRDAYTTYPHVTPSHYYYQNPIFHVVGATALYALAKYKVAPRFAAEESATSGFPSMENSLQRDPSAWLAAELSGFATRLSGGCHQLHGGKEPDIADVEMYGLTRIIDAHPRLRSALHEGPLKEWCAAMEAALQKRTHVTKK", "soluble on expression in E. coli": "not soluble"},
      {"sequence": "MRGSHHHHHHTDPHASSVPLEWPLSSQSGSYELRIEVQPKPHHRAHYETEGSRGAVKAPTGGHPVVQLHGYMENKPLGLQIFIGTADERILKPHAFYQVHRITGKTVTTTSYEKIVGNTKVLEIPLEPKNNMRATIDCAGILKLRNADIELRKGETDIGRKNTRVRLVFRVHIPESSGRIVSLQTASNPIECSQRSAHELPMVERQDTDSCLVYGGQQMILTGQNFTSESKVVFTEKTTDGQQIWEMEATVDKDKSQPNMLFVEIPEYRNKHIRTPVKVNFYVINGKRKRSQPQHFTYHPV", "soluble on expression in E. coli": "soluble"},
      {"sequence": "MAAYSYRPGPGAGPGPAAGAALPDQSFLWNVFQRVDKDRSGVISDTELQQALSNGTWTPFNPVTVRSIISMFDRENKAGVNFSEFTGVWKYITDWQNVFRTYDRDNSGMIDKNELKQALSGFGYRLSDQFHDILIRKFDRQGRGQIAFDDFIQGCIVLQRLTDIFRRYDTDQDGWIQVSYEQYLSMVFSIV", "soluble on expression in E. coli": "soluble"},
      {"sequence": "MPASQIKSAVTSPLLPQSPSLFEKYPRPHKKLKQLHWEKLDCTDNSIWGTGKAEKFADDLYEKGVLADLEKAFAAREIKSLASKRKEDLQKITFLSRDISQQFGINLHMYSSLSVADLVKKILNCDRDFLQTPSVVEFLSKSEIIEVSVNLARNYAPYSTDWEGVRNLEDAKPPEKDPNDLQRADQIYLQLMVNLESYWGSRMRALTVVTSYEREYNELLAKLRKVDKAVSALQESDNLRNVFNVILAVGNFMNDTSKQAQGFKLSTLQRLTFIKDTTNSMTFLNYVEKIVRLNYPSFNDFLSELEPVLDVVKVSIEQLVNDCKDFSQSIVNVERSVEIGNLSDSSKFHPLDKVLIKTLPVLPEARKKGDLLEDEVKLTIMEFESLMHTYGEDSGDKFAKISFFKKFADFINEYKKAQAQNLAAEEEERLYIKHKKIVEEQQK", "soluble on expression in E. coli": "soluble"},
      {"sequence": "MDPTDLSFSPDEINKLIETGLNTVEYFTSQQVTGTSSLGKNTIPPGVTGLLTNAAEAKIQESTNHQKGSVGGGAKPKKPRPKIAIVPADDKTVPGKPIPNPLLGLDSTPSTQTVLDLSGKTLPSGSYKGVKLAKFGKENLMTRFIEEPRENPIATSSPIDFKRGRDTGGFHRREYSIGWVGDEVKVTEWCNPSCSPITAAARRFECTCHQCPVTCSECERDT", "soluble on expression in E. coli": "soluble"},
      {"sequence": "MGSDKIHHHHHHVTTQLKETPPSDTSSINLEAEFQASNIKEVLDKLDRELIGLKPVKTRIRETAALLLVDRVRKKLDLTAGAPSLHMSFTGNPGTGKTTVAQRMSEILHRLGYVREGHLVSVTRDDLVGQYIGHTAPKTKEVIKKAMGGVLFIDEAYYLYKPENERDYGAESIEILLQVMENNRDDLVVILAGYKDRMDKFFRSNPGMRSRIAHHIDFPDYSPDELVAIAKLMLAAQNYRLSAEAEKAFGEYIRLRMKMEHFANARSVRNALDRARLRQANRLFEGAKKNLSRTDLITIEAEDIRASRVFVEGAVDLDGDEGASRELSEESV", "soluble on expression in E. coli": "not soluble"},
      {"sequence": "NYGVDFSDIAGQSTSIRALEIAASGGHNIILYGPPGSGKTMLAKRLPTILPPLSYKEALEVSKIYSITGQFDNKNLVFKRPFRAPHHTSSKISLVGGGSKLFPGEISLSHNGVLFLDELLEFKRSSIEVLRQPLEDKVIRFSKSSGNVTYPANFMFISAMNLCPCGNYG", "soluble on expression in E. coli": "not soluble"},
      {"sequence": "VQLLEQSGAELVKPGASVKLSCTASGFNIEDSYIHWVKQRPEQGLEWIGRIDPEDGETKYAPKFQGKATITADTSSNTAYLHLRRLTSEDTAIYYCGRGAYYIKEDFWGQGTTLTVSSASTKGPSVFPLAPSSKAGGTAALGCLVKDYFPEPVTVSWNSGALTSGVHTFPAVLQSSGLYSLSSVVTVPSSSLGTQTYICNVNHKPSNTKVDKKVEPA", "soluble on expression in E. coli": "soluble"},
      {"sequence": "MTLMVPFKQVDVFTEKPFMGNPVAVINFLEIDENEVSQEELQAIANWTNLSETTFLFKPSDKKYDYKLRIFTPRSELPFAGHPTIGSCKAFLEFTKNTTATSLVQECKIGAVPITINEGLISFKAPMADYESISSEMIADYEKAIGLKFIKPPALLHTGPEWIVALVEDAETCFNANPNFAMLAHQTKQNDHVGIILAGPKKEAAIKNSYEMRAFAPVINVYEDPVCGSGSVALARYLQEVYKFEKTTDITISEGGRLKRNGLMLASIKKEADNSTSYYIAGHATTVIDGKIKVHHHHHH", "soluble on expression in E. coli": "soluble"},
      {"sequence": "MSLKPTIYDIAKKANVSKSTVSRVLNNQPNISDKAKASVLQAIKELNYEPSKIARGLSGNGFDAILALSHRTSHTTYGNPFFSDVIQSISAVSEQNNFDLILQTAKTPEEELEKCAKKIQEKMIRGIIILSSTMDETLLFELDQYNIPIVVIGKVGNDYTNIYSVDTDNFQDSYDLVETLIKNGHRHIGCLHAPTEVYVSNDRLNGYRQCLFDHHLDIRNEWIIDGGFRLEDSMAAMNDLMKLRERPTAIFSTDALKSLSIYKVAEQSGKQIPDDLSIAGFSDPLLSSLFSPQLTRIDIPTNQLGIKATELLFQLIHHQYPEEKRIILSTEITLTDSIEGHHHHHH", "soluble on expression in E. coli": "not soluble"},
      {"sequence": "MGSDKIHHHHHHMASFQSFGIPGQLEVIKKALDHVRVGVVITDPALEDNPIVYVNQGFVQMTGYETEEILGKNCRFLQGKHTDPAEVDNIRTALQNKEPVTVQIQNYKKDGTMFWNELNIDPMEIEDKTYFVGIQNDITKQKEYEKLLEDSLTEITALSTPIVPIRNGISALPLVGNLTEERFNSIVCTLTNILSTSKDDYLIIDLSGLAQVNEQTADQIFKLSHLLKLTGTELIITGIKPELAMKMNKLDANFSSLKTYSNVKDAVKVLPIM", "soluble on expression in E. coli": "not soluble"},
      {"sequence": "MGSDKIHHHHHHMEMAIYCGKTYSWANELCSKPLKEVKVVDYNSVVDWVNSQKERAFLIFGTDVIPYSLYEYPKIPVNETPLFKFMERGGVVIWTGDVPFFYIEKDGIKKELFSKGNPFPFKPISVMGHKPLSEKSENSIVGEMLKYDPKDSWRPVEPHPLLIPISIVKSHPYTLYSTWIYKYGKGAFVRLYDSPYVNTQYILSLPERLSSLGIGIRISNFRRFRDFKMIFPEFKIGVILGKNNVGKTTILEAIAMLGKNEDKIRKFRGNISTEIAETELFVNYTYYKAEFSYSQVNRSADVNVLLIYSHDIDFVIDDKVLPYVKSSLRKVTELLNSFDPNIFYVYLSSGNELRVLFNDRTDVSINELGYGYKSLLNFILLYVIYQPRIILIDDLEGFALHPDLLKMFYDLLLKIDVDLILITTQSSDIYAYLAEKRSDKVRFILINDDKYEVLTSEEVLDRLYYEDLRYTALKIH", "soluble on expression in E. coli": "not soluble"},
      {"sequence": "MSLKILITGSNGLLGQKLVSLLYLKPEITLIATARGANRDEIYEDYIYESMDITSEENVLKVFRKHKPDAVIHTAAMTHVDQCELNKEACVDQNITSVKHIVKACKEVGAFLLHVSTDFIFDGTRGPLTEEEIPNPVNYYGWTKWEAEKAVENSGLKWAIARTVLVFGVVQDMSRSNIVLWVKNNLEQKKEINVVNDQWRTPTLAEDLAMGCWLIVKNQAEGIFNISGEEMLSPYELAHKVADVWKLDKGLIKQADSSTFTQPALRPPKTGFIIDKAKKQLGYKPHTLEEGLDLLKEQLTEGHHHHHH", "soluble on expression in E. coli": "soluble"}
    ]}
  ]
}
